Results: patent publication US20160222130A1 (Astellas, published 2016)
Like-named read-outs stand apart in the source and are kept apart here. Values belong to the binder of their own block, whether it stands above or below them.

Experiments:
[1] = target: T1, human Tie2 (on human Tie2-expressing cells) (human, UniProt Q02763 23-1124); assay: cell-based or functional assay
[2] = target: T1, human Tie2 (on human Tie2-expressing …); assay: cell-based or functional assay; remark: listed apart in the source
[3] = target: T2, recombinant monkey Tie2-Fc chimeric protein (Sino Biological Inc., 90292-C02H) (monkey); assay: ELISA, Tie2-Fc coated, HRP/TMB absorbance at 450 nm
T2 construct: Bought reagent

[4] = target: T3, recombinant human Tie2-Fc chimeric protein (R&D, 313-TI-100) (human, UniProt Q02763 23-745); assay: as above
T3 construct: Bought reagent; Fc part of the bought chimera not given

[5] = target: T1, human Tie2 (on human Tie2-expressing …); assay: cell-based or functional assay; remark: listed apart in the source
[6] = target: T1, human Tie2 (on human Tie2-expressing …); assay: cell-based or functional assay; remark: listed apart in the source

T1 sequence (Q02763 23-1124): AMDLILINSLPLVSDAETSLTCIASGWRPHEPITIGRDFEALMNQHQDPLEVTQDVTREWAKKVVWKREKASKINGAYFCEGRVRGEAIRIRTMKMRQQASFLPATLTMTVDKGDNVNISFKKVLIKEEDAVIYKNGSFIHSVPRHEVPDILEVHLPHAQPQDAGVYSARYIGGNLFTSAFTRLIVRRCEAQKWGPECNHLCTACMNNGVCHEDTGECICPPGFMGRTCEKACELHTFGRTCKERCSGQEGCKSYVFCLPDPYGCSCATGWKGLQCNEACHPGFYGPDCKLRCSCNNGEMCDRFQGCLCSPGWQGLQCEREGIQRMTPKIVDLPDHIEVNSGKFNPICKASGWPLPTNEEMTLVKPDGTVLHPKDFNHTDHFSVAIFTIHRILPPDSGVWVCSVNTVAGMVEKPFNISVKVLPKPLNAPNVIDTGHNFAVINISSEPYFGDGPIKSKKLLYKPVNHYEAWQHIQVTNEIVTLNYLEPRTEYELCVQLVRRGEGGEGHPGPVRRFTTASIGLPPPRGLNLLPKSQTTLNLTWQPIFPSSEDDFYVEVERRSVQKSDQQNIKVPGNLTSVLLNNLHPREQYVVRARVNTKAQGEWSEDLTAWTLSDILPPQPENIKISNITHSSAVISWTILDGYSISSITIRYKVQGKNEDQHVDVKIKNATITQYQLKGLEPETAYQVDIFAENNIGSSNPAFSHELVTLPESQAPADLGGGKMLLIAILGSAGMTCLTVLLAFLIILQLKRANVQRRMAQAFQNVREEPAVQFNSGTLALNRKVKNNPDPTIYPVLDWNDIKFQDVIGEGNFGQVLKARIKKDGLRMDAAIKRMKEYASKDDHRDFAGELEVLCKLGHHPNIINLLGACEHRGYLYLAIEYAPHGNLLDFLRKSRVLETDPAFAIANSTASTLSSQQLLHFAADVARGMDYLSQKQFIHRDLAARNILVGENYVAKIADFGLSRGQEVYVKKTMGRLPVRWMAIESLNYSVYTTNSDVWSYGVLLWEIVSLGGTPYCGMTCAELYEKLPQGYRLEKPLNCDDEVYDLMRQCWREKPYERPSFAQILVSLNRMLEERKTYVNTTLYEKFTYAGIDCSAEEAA
T3 sequence (Q02763 23-745, change not shown): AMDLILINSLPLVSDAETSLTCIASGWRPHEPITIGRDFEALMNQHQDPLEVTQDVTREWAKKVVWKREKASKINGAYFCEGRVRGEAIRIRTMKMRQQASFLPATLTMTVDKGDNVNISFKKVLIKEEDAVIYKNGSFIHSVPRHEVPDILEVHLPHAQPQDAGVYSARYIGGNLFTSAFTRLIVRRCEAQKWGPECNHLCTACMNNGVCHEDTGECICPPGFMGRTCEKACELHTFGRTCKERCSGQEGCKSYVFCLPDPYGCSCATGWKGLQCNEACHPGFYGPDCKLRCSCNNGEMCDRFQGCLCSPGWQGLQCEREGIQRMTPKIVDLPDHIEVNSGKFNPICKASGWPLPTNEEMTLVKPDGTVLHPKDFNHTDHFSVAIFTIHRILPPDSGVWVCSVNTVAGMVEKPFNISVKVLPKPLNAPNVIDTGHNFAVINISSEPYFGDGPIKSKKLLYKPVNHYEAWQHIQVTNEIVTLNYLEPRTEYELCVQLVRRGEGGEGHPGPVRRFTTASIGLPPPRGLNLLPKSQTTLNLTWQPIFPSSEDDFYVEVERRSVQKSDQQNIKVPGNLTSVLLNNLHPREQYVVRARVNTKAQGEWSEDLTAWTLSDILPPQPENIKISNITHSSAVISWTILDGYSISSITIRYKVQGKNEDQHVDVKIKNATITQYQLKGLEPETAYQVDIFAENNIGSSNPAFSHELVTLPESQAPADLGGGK

B2: TIE-1-Igγ1-WT (antibody, human IgG1, kappa)
heavy: not shown
light: DIQMTQSPSSLSASVGDRVTITCRSSQSLLHSHRYNYLDWYQQKPGKAPKLLIYLGSNRASGVPSRFSGSGSGTDFTLTISSVQPEDFATYYCMQTLQTPLTFGQGTKVEIKRTVAAPSVFIFPPSDEQLKSGTASVVCLLNNFYPREAKVQWKVDNALQSGNSQESVTEQDSKDSTYSLSSTLTLSKADYEKHKVYACEVTHQGLSSPVTKSFNRGEC
EC50 value of anti-apoptotic activity, human Tie2-expressing BaF3 cell [1]: 7.1 ng/mL

B3: TIE-1-Igγ1-I253A (antibody, human IgG1, kappa, L234A L235A)
heavy: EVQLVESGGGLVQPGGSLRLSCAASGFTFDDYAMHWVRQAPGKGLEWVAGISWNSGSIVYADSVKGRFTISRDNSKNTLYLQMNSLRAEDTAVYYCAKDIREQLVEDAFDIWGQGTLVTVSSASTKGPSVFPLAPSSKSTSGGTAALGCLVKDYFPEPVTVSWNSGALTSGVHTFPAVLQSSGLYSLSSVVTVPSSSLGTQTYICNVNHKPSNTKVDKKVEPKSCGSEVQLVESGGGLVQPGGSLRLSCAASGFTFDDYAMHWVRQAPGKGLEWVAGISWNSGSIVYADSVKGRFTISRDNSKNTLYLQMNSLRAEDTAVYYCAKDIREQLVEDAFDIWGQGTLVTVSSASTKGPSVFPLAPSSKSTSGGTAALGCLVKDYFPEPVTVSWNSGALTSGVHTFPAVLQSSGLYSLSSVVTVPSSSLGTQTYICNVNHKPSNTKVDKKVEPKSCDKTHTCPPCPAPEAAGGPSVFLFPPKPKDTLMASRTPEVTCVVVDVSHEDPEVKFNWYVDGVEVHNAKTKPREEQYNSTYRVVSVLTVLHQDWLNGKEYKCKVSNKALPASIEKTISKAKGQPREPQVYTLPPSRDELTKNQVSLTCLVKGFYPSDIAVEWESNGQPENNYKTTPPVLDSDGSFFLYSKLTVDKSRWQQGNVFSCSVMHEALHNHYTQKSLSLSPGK
light: B2 light
EC50 value of anti-apoptotic activity, human Tie2-expressing BaF3 cell [2]: 5.06 ng/mL

Further lines, results first:

EC50 value of anti-apoptotic activity, human Tie2-expressing BaF3 cell [1]: 37.6 ng/mL
B1: fully human 2-16A2 (antibody, human IgG1, kappa, V domains shown)
VH: EVQLVESGGGLVQPGGSLRLSCAASGFTFDDYAMHWVRQAPGKGLEWVAGISWNSGSIVYADSVKGRFTISRDNSKNTLYLQMNSLRAEDTAVYYCAKDIREQLVEDAFDIWGQGTLVTVSS
VL: DIQMTQSPSSLSASVGDRVTITCRSSQSLLHSHRYNYLDWYQQKPGKAPKLLIYLGSNRASGVPSRFSGSGSGTDFTLTISSVQPEDFATYYCMQTLQTPLTFGQGTKVEIKR

EC50 [3]: 0.224 µg/mL | EC50 [4]: 0.219 µg/mL | anti-apoptotic activity, human Tie2-expressing BaF3 cell (maximum, relative to Ang-1) [5]: ~60% | EC50 value of anti-apoptotic activity, human Tie2-expressing BaF3 cell [6]: 26.6 ng/mL
B4: murine monoclonal antibody 15B8 (antibody, V domains shown)
VH: QVQLQQPGVVLVMPGASVKLSCKASGYTFASYWMHWVKQRPGQGLEWIGEIDPSDSYRNYNQKFKGKATLTVDKSSSTVNMQLSSLTSEDSAVYYCAKTSGIGRAMDYWGQGTSVTVSS
VL: DIQMIQSPASLSASVGETVTITCRASENIYSFVTWYQQKQGKSPQLLVFNAKNLVEGVPSSFSGSGSGTQFSLKIDSLQPEDFGTYYCQHHYSIPYTFGGGTKLEMR
